Target: αB-crystallin deletion mutant lacking residues 54FLRAPSWF61 (αBΔ54–61) (human) (UniProt P02511)
Assay: SEC-MALS

Substance: αB-crystallin deletion mutant lacking residues 54FLRAPSWF61 (αBΔ54–61) (from UniProt P02511 1-175) (natural protein)
- stoichiometry N (subunits/oligomer): 20
